Results as given in patent US20250218531A1 (ABSCI, published 2025).
Positions count from the first letter of the chain named. Several values for one entry are separate records, joined by “and”; a condition that tells them apart may be missing. Equal entries are not always repeated.

B1: Trastuzumab HCDR3 variant ARYYYGFYYFDY (Fab, V domains shown)
VH: EVQLVESGGGLVQPGGSLRLSCAASGFNIKDTYIHWVRQAPGKGLEWVARIYPTNGYTRYADSVKGRFTISADTSKNTAYLQMNSLRAEDTAVYYCARYYYGFYYFDYWGQGTLVTVSS
VL: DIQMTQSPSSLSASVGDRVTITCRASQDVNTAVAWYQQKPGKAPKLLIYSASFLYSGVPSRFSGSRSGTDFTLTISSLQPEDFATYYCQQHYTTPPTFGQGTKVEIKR
B2: Trastuzumab HCDR3 variant TRYGSYYYYFDY (Fab, V domains shown)
VH: B1 VH with A97T, Y100G, Y101S, G102Y, F103Y
VL: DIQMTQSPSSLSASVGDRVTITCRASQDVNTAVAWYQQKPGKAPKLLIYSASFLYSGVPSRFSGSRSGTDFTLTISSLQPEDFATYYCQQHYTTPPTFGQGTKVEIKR
B3: Trastuzumab HCDR3 variant VRWGGYYYYFDY (Fab, V domains shown)
VH: B1 VH with A97V, Y99W, Y100G, Y101G, G102Y, F103Y
VL: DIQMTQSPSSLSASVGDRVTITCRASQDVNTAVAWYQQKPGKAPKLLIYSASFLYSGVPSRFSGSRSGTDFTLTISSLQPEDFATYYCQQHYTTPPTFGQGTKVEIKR
B4: Trastuzumab HCDR3 variant TRYGAPYFYFDY (Fab, V domains shown)
VH: B1 VH with A97T, Y100G, Y101A, G102P, F103Y, Y104F
VL: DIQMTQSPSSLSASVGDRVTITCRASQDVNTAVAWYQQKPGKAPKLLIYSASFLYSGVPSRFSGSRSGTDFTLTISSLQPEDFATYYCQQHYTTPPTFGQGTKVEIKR
B5: Trastuzumab HCDR3 variant VRYGYGYYAMDY (Fab, V domains shown)
VH: B1 VH with A97V, Y100G, F103Y, Y105A, F106M
VL: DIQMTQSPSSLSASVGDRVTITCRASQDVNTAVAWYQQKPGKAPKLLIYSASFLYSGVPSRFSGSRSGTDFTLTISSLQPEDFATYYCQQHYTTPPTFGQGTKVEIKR
B6: Trastuzumab HCDR3 variant AVYSPDFYYLGY (Fab, V domains shown)
VH: B1 VH with R98V, Y100S, Y101P, G102D, F106L, D107G
VL: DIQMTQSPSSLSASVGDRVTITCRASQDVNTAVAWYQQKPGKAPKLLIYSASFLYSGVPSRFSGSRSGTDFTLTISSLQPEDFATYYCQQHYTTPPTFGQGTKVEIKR
B7: Trastuzumab HCDR3 variant VTYGTTYYHFGS (Fab, V domains shown)
VH: B1 VH with A97V, R98T, Y100G, Y101T, G102T, F103Y, Y105H, D107G, Y108S
VL: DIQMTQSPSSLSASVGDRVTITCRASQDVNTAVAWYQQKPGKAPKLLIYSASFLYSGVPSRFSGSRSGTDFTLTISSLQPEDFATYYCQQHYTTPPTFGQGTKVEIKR
B8: Trastuzumab HCDR3 variant TRNSFGFYAMDY (Fab, V domains shown)
VH: B1 VH with A97T, Y99N, Y100S, Y101F, Y105A, F106M
VL: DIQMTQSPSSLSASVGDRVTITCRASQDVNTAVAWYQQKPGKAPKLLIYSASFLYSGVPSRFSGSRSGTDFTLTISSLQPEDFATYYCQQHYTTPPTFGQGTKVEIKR
B9: Trastuzumab HCDR3 variant VRYGGGYYYFDV (Fab, V domains shown)
VH: B1 VH with A97V, Y100G, Y101G, F103Y, Y108V
VL: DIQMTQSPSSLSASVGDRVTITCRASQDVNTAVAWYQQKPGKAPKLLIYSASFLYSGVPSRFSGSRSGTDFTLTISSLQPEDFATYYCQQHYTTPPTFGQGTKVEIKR
B10: Trastuzumab HCDR3 variant TRFRSFFYNFDY (Fab, V domains shown)
VH: B1 VH with A97T, Y99F, Y100R, Y101S, G102F, Y105N
VL: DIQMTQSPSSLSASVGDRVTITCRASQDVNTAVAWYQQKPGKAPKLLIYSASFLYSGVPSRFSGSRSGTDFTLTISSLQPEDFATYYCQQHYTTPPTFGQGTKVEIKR
B11: Trastuzumab HCDR3 variant ATWHYGGYFMSG (Fab, V domains shown)
VH: B1 VH with R98T, Y99W, Y100H, F103G, Y105F, F106M, D107S, Y108G
VL: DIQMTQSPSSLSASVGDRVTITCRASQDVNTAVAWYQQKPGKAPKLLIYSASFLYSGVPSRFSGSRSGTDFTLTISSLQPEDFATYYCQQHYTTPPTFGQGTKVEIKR
B12: Trastuzumab HCDR3 variant VRYGYGYYYMDY (Fab, V domains shown)
VH: B1 VH with A97V, Y100G, F103Y, F106M
VL: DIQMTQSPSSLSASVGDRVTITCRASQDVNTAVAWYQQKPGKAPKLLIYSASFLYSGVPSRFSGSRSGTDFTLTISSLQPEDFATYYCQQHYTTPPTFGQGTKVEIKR
B13: Trastuzumab HCDR3 variant STYARDYYHFGS (Fab, V domains shown)
VH: B1 VH with A97S, R98T, Y100A, Y101R, G102D, F103Y, Y105H, D107G, Y108S
VL: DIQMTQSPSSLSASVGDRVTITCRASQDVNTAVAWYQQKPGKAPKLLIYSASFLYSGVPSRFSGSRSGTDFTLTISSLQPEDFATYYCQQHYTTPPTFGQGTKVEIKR
B14: Trastuzumab HCDR3 variant ATYSFGAYYYVF (Fab, V domains shown)
VH: B1 VH with R98T, Y100S, Y101F, F103A, F106Y, D107V, Y108F
VL: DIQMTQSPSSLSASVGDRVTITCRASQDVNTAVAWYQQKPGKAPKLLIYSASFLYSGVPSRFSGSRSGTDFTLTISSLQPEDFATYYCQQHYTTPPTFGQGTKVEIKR
B15: Trastuzumab HCDR3 variant ATYGRDYYHFAS (Fab, V domains shown)
VH: B1 VH with R98T, Y100G, Y101R, G102D, F103Y, Y105H, D107A, Y108S
VL: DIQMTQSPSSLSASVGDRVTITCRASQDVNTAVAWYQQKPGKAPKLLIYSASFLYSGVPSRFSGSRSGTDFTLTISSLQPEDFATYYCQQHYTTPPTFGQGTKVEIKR
B16: Trastuzumab HCDR3 variant VRYGGTYYYFDY (Fab, V domains shown)
VH: B1 VH with A97V, Y100G, Y101G, G102T, F103Y
VL: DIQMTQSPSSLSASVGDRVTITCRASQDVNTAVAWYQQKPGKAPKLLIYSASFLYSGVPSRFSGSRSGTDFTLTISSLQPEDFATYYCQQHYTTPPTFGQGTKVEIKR
B17: Trastuzumab HCDR3 variant ATYGYGYYYFDY (Fab, V domains shown)
VH: B1 VH with R98T, Y100G, F103Y
VL: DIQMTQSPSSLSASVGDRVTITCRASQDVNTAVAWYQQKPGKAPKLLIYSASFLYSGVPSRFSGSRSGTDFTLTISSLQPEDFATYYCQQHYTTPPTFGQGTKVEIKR
B18: Trastuzumab HCDR3 variant TRYGYGYYYMDY (Fab, V domains shown)
VH: B1 VH with A97T, Y100G, F103Y, F106M
VL: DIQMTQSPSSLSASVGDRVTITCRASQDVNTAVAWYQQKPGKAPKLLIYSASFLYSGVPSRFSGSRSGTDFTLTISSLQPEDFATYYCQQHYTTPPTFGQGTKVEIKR
B19: Trastuzumab HCDR3 variant VRYGYGYYYFDY (Fab, V domains shown)
VH: B1 VH with A97V, Y100G, F103Y
VL: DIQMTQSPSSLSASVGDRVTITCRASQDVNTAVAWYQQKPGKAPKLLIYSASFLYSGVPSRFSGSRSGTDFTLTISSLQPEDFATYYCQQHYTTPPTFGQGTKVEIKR
B20: Trastuzumab HCDR3 variant TRYYYGLYYFDY (Fab, V domains shown)
VH: B1 VH with A97T, F103L
VL: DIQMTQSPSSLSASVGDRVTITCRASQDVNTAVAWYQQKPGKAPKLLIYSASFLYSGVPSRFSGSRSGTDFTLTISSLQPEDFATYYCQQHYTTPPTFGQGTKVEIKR
B21: Trastuzumab HCDR3 variant TRFLIGSYYYDY (Fab, V domains shown)
VH: B1 VH with A97T, Y99F, Y100L, Y101I, F103S, F106Y
VL: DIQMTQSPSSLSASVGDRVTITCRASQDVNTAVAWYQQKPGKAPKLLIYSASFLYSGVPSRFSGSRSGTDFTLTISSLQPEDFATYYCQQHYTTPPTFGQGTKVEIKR
B22: Trastuzumab HCDR3 variant ARYYYYSYAMDY (Fab, V domains shown)
VH: B1 VH with G102Y, F103S, Y105A, F106M
VL: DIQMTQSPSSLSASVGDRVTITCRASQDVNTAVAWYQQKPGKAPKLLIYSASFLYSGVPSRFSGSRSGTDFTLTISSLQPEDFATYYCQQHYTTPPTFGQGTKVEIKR
B23: Trastuzumab HCDR3 variant VRYGGDYYYFDY (Fab, V domains shown)
VH: B1 VH with A97V, Y100G, Y101G, G102D, F103Y
VL: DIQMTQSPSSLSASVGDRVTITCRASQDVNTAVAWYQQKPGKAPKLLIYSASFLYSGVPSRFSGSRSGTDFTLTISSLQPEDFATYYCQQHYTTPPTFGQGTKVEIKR
B24: Trastuzumab HCDR3 variant TRYGGGYYYFDY (Fab, V domains shown)
VH: B1 VH with A97T, Y100G, Y101G, F103Y
VL: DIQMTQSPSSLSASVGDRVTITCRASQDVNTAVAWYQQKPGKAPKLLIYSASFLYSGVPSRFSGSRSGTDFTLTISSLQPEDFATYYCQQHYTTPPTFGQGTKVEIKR
B25: Trastuzumab HCDR3 variant AVSADIMYGVSV (Fab, V domains shown)
VH: B1 VH with R98V, Y99S, Y100A, Y101D, G102I, F103M, Y105G, F106V, D107S, Y108V
VL: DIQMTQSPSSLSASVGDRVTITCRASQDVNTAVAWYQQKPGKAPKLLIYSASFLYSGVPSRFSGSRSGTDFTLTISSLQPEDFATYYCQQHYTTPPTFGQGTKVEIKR
B26: Trastuzumab HCDR3 variant ATWYGGNYHMYP (Fab, V domains shown)
VH: B1 VH with R98T, Y99W, Y101G, F103N, Y105H, F106M, D107Y, Y108P
VL: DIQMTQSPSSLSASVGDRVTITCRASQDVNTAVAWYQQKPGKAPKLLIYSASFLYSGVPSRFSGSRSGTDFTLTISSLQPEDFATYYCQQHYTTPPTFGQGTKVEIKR
B27: Trastuzumab HCDR3 variant TRYGYGYYYFDY (Fab, V domains shown)
VH: B1 VH with A97T, Y100G, F103Y
VL: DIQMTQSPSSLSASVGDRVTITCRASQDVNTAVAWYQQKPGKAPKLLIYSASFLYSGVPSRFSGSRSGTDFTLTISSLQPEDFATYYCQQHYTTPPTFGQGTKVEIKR
B28: Trastuzumab HCDR3 variant VRYGYDYYWFDY (Fab, V domains shown)
VH: B1 VH with A97V, Y100G, G102D, F103Y, Y105W
VL: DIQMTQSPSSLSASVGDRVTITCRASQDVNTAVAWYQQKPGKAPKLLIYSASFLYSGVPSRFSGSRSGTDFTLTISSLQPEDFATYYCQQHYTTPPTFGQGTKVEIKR
B29: Trastuzumab HCDR3 variant ATYSPGAYYYGP (Fab, V domains shown)
VH: B1 VH with R98T, Y100S, Y101P, F103A, F106Y, D107G, Y108P
VL: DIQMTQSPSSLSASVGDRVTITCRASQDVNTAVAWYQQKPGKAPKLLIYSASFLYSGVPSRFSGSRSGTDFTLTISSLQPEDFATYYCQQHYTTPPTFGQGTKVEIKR
B30: Trastuzumab HCDR3 variant VRWRSDFYYFDY (Fab, V domains shown)
VH: B1 VH with A97V, Y99W, Y100R, Y101S, G102D
VL: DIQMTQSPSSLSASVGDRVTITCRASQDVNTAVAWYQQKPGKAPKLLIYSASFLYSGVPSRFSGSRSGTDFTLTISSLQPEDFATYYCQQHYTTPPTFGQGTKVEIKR
B31: Trastuzumab HCDR3 variant ARYGGYGGYYFDY (Fab, V domains shown)
VH: EVQLVESGGGLVQPGGSLRLSCAASGFNIKDTYIHWVRQAPGKGLEWVARIYPTNGYTRYADSVKGRFTISADTSKNTAYLQMNSLRAEDTAVYYCARYGGYGGYYFDYWGQGTLVTVSS
VL: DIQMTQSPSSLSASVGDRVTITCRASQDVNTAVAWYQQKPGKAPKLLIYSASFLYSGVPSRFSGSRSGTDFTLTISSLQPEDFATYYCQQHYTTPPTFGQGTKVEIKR
B32: Trastuzumab HCDR3 variant AKYGATGWYYFDY (Fab, V domains shown)
VH: B31 VH with R98K, G101A, Y102T, G104W
VL: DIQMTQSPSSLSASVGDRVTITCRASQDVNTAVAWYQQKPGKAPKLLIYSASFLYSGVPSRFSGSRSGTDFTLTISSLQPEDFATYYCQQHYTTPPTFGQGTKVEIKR
B33: Trastuzumab HCDR3 variant AATYGGLGDMSSI (Fab, V domains shown)
VH: B31 VH with R98A, Y99T, G100Y, Y102G, G103L, Y105D, Y106M, F107S, D108S, Y109I
VL: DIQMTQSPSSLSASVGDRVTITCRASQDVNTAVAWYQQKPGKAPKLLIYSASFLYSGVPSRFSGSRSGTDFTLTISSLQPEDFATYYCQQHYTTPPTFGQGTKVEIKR
B34: Trastuzumab HCDR3 variant AKYGGVGYYAMDY (Fab, V domains shown)
VH: B31 VH with R98K, Y102V, G104Y, Y106A, F107M
VL: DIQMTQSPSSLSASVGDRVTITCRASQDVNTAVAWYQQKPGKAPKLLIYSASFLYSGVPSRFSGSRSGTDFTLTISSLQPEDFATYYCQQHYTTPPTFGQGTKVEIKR
B35: Trastuzumab HCDR3 variant AKYAYYGDFWGSV (Fab, V domains shown)
VH: B31 VH with R98K, G100A, G101Y, G104D, Y105F, Y106W, F107G, D108S, Y109V
VL: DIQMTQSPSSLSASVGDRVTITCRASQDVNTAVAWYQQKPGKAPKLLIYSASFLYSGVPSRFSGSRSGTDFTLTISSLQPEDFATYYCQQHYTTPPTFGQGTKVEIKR
B36: Trastuzumab HCDR3 variant AKFAYYGPYHFDP (Fab, V domains shown)
VH: B31 VH with R98K, Y99F, G100A, G101Y, G104P, Y106H, Y109P
VL: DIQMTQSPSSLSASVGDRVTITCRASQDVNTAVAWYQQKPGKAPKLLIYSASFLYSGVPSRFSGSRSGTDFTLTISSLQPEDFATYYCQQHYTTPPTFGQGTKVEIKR

Molecular target: T1, HER2 (human epidermal growth factor receptor 2) (human, UniProt P04626 23-629)
T1 construct: also called Antigen: HER2
Assay: SPR

Going from B1 to B2, the Kd rises from 1.21 nM to 3.18 nM (2.6-fold).

Going from B3 to B6, the Kd falls from 6.35 nM to 2.06 nM (3.1-fold). The second binds more tightly here.

First: B8
Second: B9
The Kd of the first is 4.8-fold higher: 19 nM for the first, 3.96 nM for the second. The second binds more tightly here.

B10 and B12 are within 1.5-fold of each other in Kd: 5.4 nM for the first, 5.48 nM for the second.

Going from B14 to B15, the Kd rises from 4.73 nM to 7.55 nM (1.6-fold).

Going from B16 to B18, the Kd falls from 15.4 nM to 5.25 nM (2.9-fold). The second binds more tightly here.

B19 and B20 are within 1.5-fold of each other in Kd: 2.77 nM for the first, 3.02 nM for the second.

Compared with B22, B24 is 1.9-fold lower in Kd: 6.9 nM for the first, 3.59 nM for the second. The second binds more tightly here.

Compared with B27, B30 is 1.8-fold higher in Kd: 2.73 nM for the first, 4.95 nM for the second.

First: B31
Second: B33
The Kd of the first is 1.9-fold lower: 14 nM for the first, 27 nM for the second.

Work on B34 yielded a Kd of 25.2 nM.

First: B1
Second: B2
The “log(KD (M))” value of the first is lower: -8.92 for the first, -8.5 for the second.

First: B3
Second: B4
The “log(KD (M))” value of the first is lower: -8.2 for the first, -7.75 for the second.

First: B5
Second: B6
The “log(KD (M))” value of the first is higher: -7.97 for the first, -8.69 for the second.

B7 and B8 are within 0.2 log units of each other in “log(KD (M))” value: -7.62 for the first, -7.72 for the second.

B9 and B10 are within 0.2 log units of each other in “log(KD (M))” value: -8.4 for the first, -8.27 for the second.

Compared with B11, B12 is lower in “log(KD (M))” value: -7.65 for the first, -8.26 for the second.

First: B13
Second: B14
The “log(KD (M))” value of the first is higher: -7.9 for the first, -8.33 for the second.

Going from B15 to B16, the “log(KD (M))” value rises from -8.12 to -7.81.

First: B17
Second: B18
The “log(KD (M))” value of the first is higher: -7.81 for the first, -8.28 for the second.

B19 and B20 are within 0.2 log units of each other in “log(KD (M))” value: -8.56 for the first, -8.52 for the second.

Going from B21 to B22, the “log(KD (M))” value falls from -7.93 to -8.16.

Compared with B23, B24 is lower in “log(KD (M))” value: -7.66 for the first, -8.45 for the second.

Compared with B25, B26 is lower in “log(KD (M))” value: -7.64 for the first, -7.95 for the second.

First: B27
Second: B28
The “log(KD (M))” value of the first is lower: -8.56 for the first, -7.98 for the second.

First: B29
Second: B30
The “log(KD (M))” value of the first is higher: -7.76 for the first, -8.31 for the second.

B31 and B32 are the same in “log(KD (M))” value: -7.85 for the first, -7.85 for the second.

B33 and B34 are within 0.2 log units of each other in “log(KD (M))” value: -7.57 for the first, -7.6 for the second.

Compared with B35, B36 is lower in “log(KD (M))” value: -7.76 for the first, -7.99 for the second.

Work on B4 yielded a Kd of 18 nM.
With B5 the Kd was 10.7 nM.
For B7, the Kd was 24.1 nM.
In the case of B11, the Kd is reported as 22.5 nM and 22.4 nM.
With B13 the Kd was 12.6 nM.
With B17 the Kd was 15.5 nM.
B21 was tested, and the Kd was 11.6 nM.
For B23, the Kd was 21.9 nM.
B25 showed a Kd of 22.9 nM.
In the case of B26, the Kd is reported as 11.2 nM.
B28 showed a Kd of 10.4 nM.
B29 was tested, and the Kd was 17.3 nM and 17.2 nM.
In the case of B32, the Kd is reported as 14.1 nM.
Binder B35 has a Kd of 17.5 nM.
Binder B36 has a Kd of 10.1 nM.
